The values that follow come from the nanobody polyreactivity screen of Harvey et al. (2022).

The series can be described thus: yeast display, Sf9 membrane polyspecificity reagent, FACS + sequencing; frameworks hold sequencing errors. An outline of the steps:
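Polyreactivity labels are assigned by the sorting gate from which each nanobody was recovered. The gates were low and high (top ~1%), set on anti-HA fluorescence for expression and streptavidin fluorescence for reagent binding. Before sorting, galactose-induced (36–48 hours) yeast display cells were stained for 1 hour at 4 °C with 10% biotinylated, detergent-solubilized Sf9 membrane reagent.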
Take “QVQLVESGGGLVQAGGSLRLSCAASGSILYRYTMGWYRQAPGKERELVAAITKRGGRTYYADSVKGRFTISRDNAKNTVYLQMNSLKPEDTAVYYCAAKYYTGGSFEMYYWGQGTQVTVSS”: the “polyreactivity (PSR sort gate)” value was “high polyreactivity”. For “QVQLVESGGGLVQAGGSLRLSCAASGSILYTNAMGWYRQAPGKERELVAAITTSGASTYYADSVKGRFTISRDNAKNTVYLQMNSLKPEDTAVYDCAAPSRYRYYWGNYWGQGTQVTVSS” the value was “high polyreactivity”; for “QVQLVESGGGLVQAGGSLRLSCAASGSILYVYAMGWYRQAPGKERELVAAISFSGGSTYYADSVKGRFTISRDNAKNTVYLQMNSLKPEDTAVYYCAAALGPGAWYGDKYEYEYWGQGTQVTVSS”, “low polyreactivity”; for “QVQLVESGGGLVQAGGSLRLSCAASGSILYVYAMGWYRQAPGKERELVATITGRVVSKNYADSVKGRLTLSRDNAKNSVYLQMNSLKPEDTAVYYCAARTRRRRGEYDYWGQGTQVTVSS”, “high polyreactivity”.

For the sequence “QVQLVESGGGLVQAGGSLRLSCAASGSILYVYAMGWYTQAPGKERELVAAISNRDGSTYYADSVKGRFTISRDNAKNTVYLQMNSLKPEDTAVYYCNADGYGDYSFLKYRFEYDYWGQGTQVTVSS”, the “polyreactivity (PSR sort gate)” value was “low polyreactivity”.

With “QVQLVESGGGLVQAGGSLRLSCAASGSILYVYDMGWYRQAPGNERELVATITGRVVSTNYADSVKGRFTISRDNAKNTVYLQMNSLKPEDTAVYYCAARTRRRRGEYDYWGQGTQVTVSS”, the “polyreactivity (PSR sort gate)” value is recorded as “high polyreactivity”. For “QVQLVESGGGLVQAGGSLRLSCAASGSILYWNAMGWYRQAPGKERELVADITWRGGSTYADSVKGRFTISRDNAKNTVYLQMNSLKPEDTAVYYCNAVPVRGSAPRYRQTYSYWGQGTQVTVSS” the value was “high polyreactivity”.

Regarding “QVQLVESGGGLVQAGGSLRLSCAASGSIMNNYAMGWYRQAPGKERELVAAISSSGGTNYADSVKGRFTISRDNAKNTVYLLMNSLKPEDTAVYYCNADVMDGGYDYWGQGTQVTVSS”, the “polyreactivity (PSR sort gate)” value was “low polyreactivity”. For the sequence “QVQLVESGGGLVQAGGSLRLSCAASGSINCSNAMGLYRKAPRKERDLVAAITESGGDTYYADSVKGRFTISRDNAKNTVYLLINSMKPEDTAVYYCAARYFGVIVDVSLFSEYGSWGQGTQVTVSS”, the “polyreactivity (PSR sort gate)” value is given as “low polyreactivity”. For “QVQLVESGGGLVQAGGSLRLSCAASGSIQGKNAMRWYRPAPGKERELVAAISTRGGSTYYADSVKGRFTISRDNAKNSVYFQMNSLKPEDTAVYYCNARWREYKAKWGSRYDYWGQGTQVTVSS” the value was “high polyreactivity”. Take “QVQLVESGGGLVQAGGSLRLSCAASGSIQYRYAMGWYRQAPGKERELVAAITRSGGSTYYADSVKGRFTISRDNAKNTVYLQMNSLKPEDTAVYYCARQRKVSAHSIEMDYWGQGTQVTVSS”: the “polyreactivity (PSR sort gate)” value is given as “low polyreactivity”. Then “QVQLVESGGGLVQAGGSLRLSCAASGSIQYYAMGWYRQAPGKERELVAAIRFSGGRTYYADSVKGRFTISRDNAKNTVYLQMNSLKPEDTAVYYCAAYRSPRRSGAPSQGKFDYWGQGTQVTVSS”, with “low polyreactivity”; and “QVQLVESGGGLVQAGGSLRLSCAASGSIRYNAMGWYRQAPGKERELVAAISYRGGTTYYADSVKGRYTISRDNAKNTVYLQMNSLKPEDTAVYYCNAGVRAYGYSAKYYYWGQGTQVTVSS”, with “high polyreactivity”; and “QVQLVESGGGLVQAGGSLRLSCAASGSISAGNAMGWYRQAPGKERELVAAISISAGRTYYADSVKGRFTISRDNAKNTVYLQMNSLKPEDTAVYYCNAYSSYIKYDYWGQGTQVTVSS”, with “high polyreactivity”.

For the sequence “QVQLVESGGGLVQAGGSLRLSCAASGSISDSYAMGWYRPAPGKERELVAAITSGDSTYYADSVKGRFTISRDNAKNTVYLQMNSLKPEDTAVYYCAKRVSRVRGYGFTDWSEYDYWGQGTQVTVSS”, the “polyreactivity (PSR sort gate)” value is “low polyreactivity”. Turning to “QVQLVESGGGLVQAGGSLRLSCAASGSISFLYTMGWYRQAPGKERELVAAITGSTASTYYADSVKGRFTISRDNAKNTVYLQMNSLKPEDTAVYYCAAYWYAEGYWVSRDYWGQGTQVTVSS”, the “polyreactivity (PSR sort gate)” value is recorded as “low polyreactivity”.
